Test in all cases: cell-based or functional assay
The target in experiment [1] is zcyto21 (human IL-29) (human) (UniProt Q8IU54).
For experiment [2], the target named is T1, zcyto24 (mouse IL-28A) (mouse) (UniProt Q4VK74).
T1 sequence: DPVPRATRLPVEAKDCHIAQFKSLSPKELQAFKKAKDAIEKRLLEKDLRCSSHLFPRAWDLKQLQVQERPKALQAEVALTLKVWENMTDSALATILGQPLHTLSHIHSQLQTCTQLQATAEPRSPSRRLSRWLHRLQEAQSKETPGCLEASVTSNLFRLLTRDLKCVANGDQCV

Experiment [3] concerns the target T2, zcyto20 (human IL-28A) (human) (UniProt Q8IZJ0).
T2 sequence: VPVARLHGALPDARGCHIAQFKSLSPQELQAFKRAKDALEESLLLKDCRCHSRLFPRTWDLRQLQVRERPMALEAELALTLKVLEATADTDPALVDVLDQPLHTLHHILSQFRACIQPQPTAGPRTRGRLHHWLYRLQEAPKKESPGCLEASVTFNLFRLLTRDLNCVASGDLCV

Chain of zcyto21 (human IL-29) (human) (Q8IU54 20-200): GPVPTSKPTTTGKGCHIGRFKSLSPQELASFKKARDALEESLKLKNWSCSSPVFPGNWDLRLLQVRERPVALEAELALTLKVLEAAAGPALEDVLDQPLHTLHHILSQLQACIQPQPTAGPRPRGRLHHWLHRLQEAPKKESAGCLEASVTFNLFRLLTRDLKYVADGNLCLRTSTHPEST

B1: human zcytor19-Fc homodimer (Fc fusion, not shown: a dimerising Fc or GST)
chain: RPRLAPPQNVTLLSQNFSVYLTWLPGLGNPQDVTYFVAYQSSPTRRRWREVEECAGTKELLCSMMCLKKQDLYNKFKGRVRTVSPSSKSPWVESEYLDYLFEVEPAPPVLVLTQTEEILSANATYQLPPCMPPLDLKYEVAFWKEGAGNKTLFPVTPHGQPVQITLQPAASEHHCLSARTIYTFSVPKYSKFSKPTCFLLEVPEAN
B1: the Percent Inhibition of Ligand-induced Interferon Stimulated Response Element (ISRE) Signaling by Soluble Receptors in experiment [1] turned out to be 45%; in experiment [2], 90%; in experiment [3], 92%.

The record behind these values is patent US20040138122A1.
